According to patent publication US9809627B2, “Cyclized transthyretin peptide and methods of use therefor” (Wisconsin Alumni Research Foundation, priority 2014, dated 2017):
Where no end group is shown, it is not given here. [ ]: non-standard residue; d: D form.

What was measured:
Aβ = molecular target: T1, Aβ (Homo sapiens, UniProt P05067); assay: Enzyme-linked immunoassay of Aβ binding to immobilized CG3-biotin in presence of serum proteins; conditions: Aβ 1, 3 or 5 μg/mL in PBS with 10% or 30% FBS
T1 construct: Amyloid-beta (Aβ or Abeta) denotes peptides of 36-43 amino acids
Excerpt: Evidence of interaction between Aβ and peptide investigated by enzyme-linked immunoassay. CG3 was synthesized with an appending polyethylene glycol (PEG) linker attached to biotin. This was achieved by replacing Val at the 3rd position with Glu and on-column addition of PEG and biotin to the Glu side chain. […] After further washing, Aβ was detected using monoclonal anti-Aβ antibody and Superclonal-HRP. […] Open symbols/dashed lines are negative control (immobilized PEG-biotin linker).
Briefly, CG3 was synthesized with an appended flexible PEG linker and biotin. […] Aβ was prepared at 1, 3, or 5 μg/mL in PBS, or in PBS containing 10 (vol/vol) % or 30 (vol/vol) % fetal bovine serum (FBS, charcoal-treated). […] Aβ solutions were added to the CG3-coated wells and then incubated to allow binding. After washing, Aβ was detected by anti-Aβ antibody (6E10 or 4G8) and Superclonal-HRP.

Aβ (1-40) = molecular target: T2, Aβ (1-40) (Homo sapiens, UniProt P05067); assay: Dynamic light scattering of Aβ aggregate growth; assay type: biochemical; conditions: 140 μM Aβ
T2 construct: Aβ (1-40) was purchased from Anaspec, Inc. (Fremont, Calif.) as lyophilized powder; purchased Anaspec, Inc. (Fremont, Calif.)
Experimental: Aβ (1-40) was purchased from Anaspec, Inc. (Fremont, Calif.) as lyophilized powder. For dynamic light scattering, ThT fluorescence assay, TEM, NTA measurement and filtration/sedimentation assay, Aβ was dissolved in 50% ACN, re-lyophilized, and reconstituted in 8M urea at 12 mg/mL. Aβ stock was then aliquoted, snap-frozen in ethanol with dry ice, and stored at −80° C. For PICUP and proteolytic fragmentation analysis, lyophilized Aβ was dissolved in prechilled hexafluoroisopropanol (HFIP, Acros Organics, Geel, Belgium), aliquoted, dried and stored at −20° C. as previously described (Cho et al., 2014). Aβ sample was prepared right before use by dissolving dried peptides in 50 mM NaOH and diluting into phosphate-buffered saline (PBSA) (10 mM Na2HPO4/NaH2PO4, 150 mM NaCL and 0.02% NaN3 (pH 7.4)) to 30 μM as previously described (Cho et al., 2014).
Aβ stock in 8M urea prepared as stated above was thawed and sonicated for 2 min before being diluted into PBSA. Aβ alone (140 μM) or mixed with peptides (14 μM) was filtered through […] filter directly into a light scattering cuvette and placed into a bath of the index-matching solvent decahydronaphthalene with temperature controlled to 37° C. Light scattering data were collected using a Brookhaven BI-200SM system (Brookhaven Instruments Corp., Holtsville, N.Y.) and an Innova 90C-5 argon laser (Coherent, Santa Clara, Calif.) operating at 488 nm and 150 mW. The average scattering intensity at 90° was measured over 10 hr and data were normalized to the total mass concentration. The z-averaged hydrodynamic diameter was determined from the autocorrelation function using the method of cummulants.

[1] = Peptide self-association by PICUP cross-linking and gel electrophoresis; assay type: physicochemical; conditions: PICUP cross-linking, gel electrophoresis
Experimental: Peptides were also cross-linked by PICUP and analyzed for self-association. Twenty microliters of peptides at 36 μM in PBSA was incubated for 1 hr at 37° C. and cross-linked. Cross-linked samples were then heated at 95° C. for 5 min and separated on a 10-20% Tris-Tricine gradient gel. Peptides were visualized by silver staining (SilverStain Kit, Pierce, Rockford, Ill.).

Substance: SKVVT^DPPRYTIAALLSPYSYSQ [CG3] (chain 1 SKVVT[dP]PRYTIAALLSPYSYSQ; chain 2 SKVVT[dP]PRYTIAALLSPYSYSQ; also: head-to-tail to a chain's N/C-terminus) [cyclic 22-mer of TTR residues 104-123 grafted onto DPro-Pro template]
- binding of Aβ to immobilized peptide (Aβ): serum proteins do not interfere with Aβ binding
- effect on Aβ aggregation (hydrodynamic diameter, total scattered intensity) (Aβ (1-40); 14 μM peptide): increased the size of aggregates of Aβ
- intensity of scattered light of Aβ-peptide mixture (Aβ (1-40); 14 μM peptide): enhanced the intensity of scattered light similarly
- mean hydrodynamic size of Aβ-peptide mixture (Aβ (1-40); after 5 hr, 10:1 molar excess of Aβ, 37° C.): 1000 nm
- self-association by PICUP [1]: a fraction of CG3 forms a SDS-stable dimer
